Experimental data published in paper PMC8491902, “Experimental and computational investigation of enzyme functional annotations uncovers misannotation in the EC 1.1.3.15 enzyme class” (PLoS Computational Biology, 2021).

Experiments:
C9Y9E7 = target: T1, C9Y9E7 (Curvibacter putative symbiont of Hydra magnipapillata, UniProt C9Y9E7); test: Amplex Red peroxide assay; assay type: biochemical; settings: […] DL-mandelate; […] HEPES pH […]; HRP; lysate
T1 construct: gene lldD; full-length synthetic gene in pET21a, C-terminal linker and deca-His tag, soluble E. coli BL21(DE3) lysate
T1 sequence (C9Y9E7 1-381): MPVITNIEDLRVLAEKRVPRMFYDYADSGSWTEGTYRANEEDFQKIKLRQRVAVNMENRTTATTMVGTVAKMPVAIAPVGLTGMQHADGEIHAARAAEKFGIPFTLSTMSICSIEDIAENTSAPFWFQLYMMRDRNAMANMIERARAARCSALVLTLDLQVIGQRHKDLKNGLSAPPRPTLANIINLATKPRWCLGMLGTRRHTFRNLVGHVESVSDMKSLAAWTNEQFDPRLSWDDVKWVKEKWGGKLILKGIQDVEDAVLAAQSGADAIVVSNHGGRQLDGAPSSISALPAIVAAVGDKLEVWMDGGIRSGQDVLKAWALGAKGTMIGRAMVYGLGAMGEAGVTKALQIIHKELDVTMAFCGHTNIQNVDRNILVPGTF

W6W585 = target: T2, W6W585 (Rhizobium sp. CF080, UniProt W6W585); test: Amplex Red peroxide assay; assay type: biochemical; settings: […] DL-mandelate; […] HEPES pH […]; HRP; lysate
T2 construct: gene PMI07_004712; full-length synthetic gene in pET21a, C-terminal linker and deca-His tag, soluble E. coli BL21(DE3) lysate
T2 sequence (W6W585 1-409): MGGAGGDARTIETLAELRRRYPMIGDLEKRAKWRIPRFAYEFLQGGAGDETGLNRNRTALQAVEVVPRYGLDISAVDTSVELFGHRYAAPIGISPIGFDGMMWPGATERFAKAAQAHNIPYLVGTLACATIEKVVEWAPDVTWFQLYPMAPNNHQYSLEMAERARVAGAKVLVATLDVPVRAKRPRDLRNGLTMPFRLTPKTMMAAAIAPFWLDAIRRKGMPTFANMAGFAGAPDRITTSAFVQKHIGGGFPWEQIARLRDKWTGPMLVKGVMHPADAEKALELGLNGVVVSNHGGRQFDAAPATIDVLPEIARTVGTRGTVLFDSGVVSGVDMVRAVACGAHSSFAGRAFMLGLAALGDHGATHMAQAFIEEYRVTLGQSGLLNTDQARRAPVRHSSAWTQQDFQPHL

E6SCX5 = target: T3, E6SCX5 (Intrasporangium calvum, UniProt E6SCX5); test: Amplex Red peroxide assay; assay type: biochemical; settings: 1 mM DL-mandelate; 20 mM HEPES pH 7.4; HRP; lysate
T3 construct: gene Intca_2052; full-length synthetic gene in pET21a, C-terminal linker and deca-His tag, soluble E. coli BL21(DE3) lysate
T3 sequence (E6SCX5 1-415): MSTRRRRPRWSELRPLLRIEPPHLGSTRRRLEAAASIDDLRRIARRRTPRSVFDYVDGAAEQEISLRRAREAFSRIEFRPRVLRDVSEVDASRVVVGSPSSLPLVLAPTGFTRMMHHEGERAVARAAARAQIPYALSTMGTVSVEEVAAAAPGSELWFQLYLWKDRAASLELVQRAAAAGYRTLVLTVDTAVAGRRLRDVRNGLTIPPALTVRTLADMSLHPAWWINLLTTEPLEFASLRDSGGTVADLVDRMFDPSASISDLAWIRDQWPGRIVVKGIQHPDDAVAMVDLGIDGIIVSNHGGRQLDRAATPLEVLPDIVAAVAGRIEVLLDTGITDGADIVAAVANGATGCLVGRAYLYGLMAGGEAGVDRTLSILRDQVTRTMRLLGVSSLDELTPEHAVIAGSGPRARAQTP

B8MKR3 = target: T4, B8MKR3 (Talaromyces stipitatus, UniProt B8MKR3); test: cytochrome c reduction at […] nm; assay type: biochemical; settings: 2 mM substrate; 0.1 mM cytochrome c; 20 mM HEPES pH 7.4
T4 construct: gene TSTA_043820
T4 sequence (B8MKR3 1-496): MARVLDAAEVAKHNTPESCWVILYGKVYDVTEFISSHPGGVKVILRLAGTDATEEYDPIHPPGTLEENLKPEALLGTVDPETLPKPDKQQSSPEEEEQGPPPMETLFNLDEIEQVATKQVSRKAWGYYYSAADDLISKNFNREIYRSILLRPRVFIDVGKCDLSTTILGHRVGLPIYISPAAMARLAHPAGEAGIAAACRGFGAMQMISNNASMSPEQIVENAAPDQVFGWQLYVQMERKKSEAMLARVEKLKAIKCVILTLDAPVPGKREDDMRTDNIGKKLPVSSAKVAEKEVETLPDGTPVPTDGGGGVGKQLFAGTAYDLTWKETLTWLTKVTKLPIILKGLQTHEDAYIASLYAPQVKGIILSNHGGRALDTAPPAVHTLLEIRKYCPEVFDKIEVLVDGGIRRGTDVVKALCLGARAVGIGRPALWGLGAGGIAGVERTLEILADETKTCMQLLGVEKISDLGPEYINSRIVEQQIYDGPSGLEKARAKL

purified protein [1] = substrate: C[C@@H](O)C(=O)O; test: purified protein; settings: DCPIP + PMS as electron acceptor, 20 mM HEPES pH 7.4, 25 °C
purified protein [2] = substrate: O=P(O)(O)OC[C@H](O)CO; test: purified protein; assay type: biochemical, Caloramator mitchellensis; settings: DCPIP + PMS as electron acceptor, 20 mM HEPES pH 7.4, 25 °C

O=C(O)C(O)c1ccccc1 (racemic) [DL-mandelate]
Amplex Red peroxide assay (C9Y9E7): the four proteins display a high activity with mandelate
Amplex Red peroxide assay (W6W585): the four proteins display a high activity with mandelate
Amplex Red peroxide assay (E6SCX5): the four proteins display a high activity with mandelate

C[C@H](O)C(=O)O [L-lactate]
cytochrome c reduction at 550 nm (B8MKR3): the B8MKR3 protein displayed cytochrome b2 L-lactate dehydrogenase activity

B1: D4MUV9 (Anaerostipes hadrus) (protein)
chain: MSEYQYNKVTPEMIEKFKEIAPKRVLVGDEINEDFTHDEMAIYGKARPEVLVEATSTEEVAAVVKLCNENKIPVTPSGARTGLVGGAVSIGGGVMISLTKMNKILGYDKENFVVKIQSGVLLNDLAQDAEKQGLLYPPDPGEKFATVGGNVATNAGGMRAVKYGCTRDYVRAMTVVLPTGEIVKLGATVSKTSSGYSLLNLMIGSEGTLGIITELTLKVIPAPKSVISLIIPYENLEDCIATVPQFFMHHLAPQALEFMEKEVVMDTEKFLGKQVYPKELEGTEIGAYLLATFDGNSEEQLEDIIEQASEVVLEAGAIDVLVADTPALKKDAWAVRGALLEAIEADTVLLDECDVVVPTNKIAEFLTYTKSLEAEADFRVKSFGHAGDGNLHIYTCSNDMEEGEFKKQVAVFMDKVYAKATEFGGMISGEHGIGHGKMDYLAESLGPVQMRIMEGVKEVFDPNMILNPGKICYKL
Km (purified protein [1]): 0.40 +/- 0.04 x 10^-3 M
kcat (purified protein [1]): 5.18 s⁻¹
kcat/Km (purified protein [1]): 13100 M⁻¹ s⁻¹

B2: A0A0R3K2G2 (Caloramator mitchellensis) (protein)
chain: MFDVAIIGAGVIGCSIARELSKYNLNVALIEKENDVGNVTTKANSAIIHAGYDAKPGTLKGKLNAKGNLMFDELCRELEVPFKRVGSLVLAFDDDEMKTLGKLYEQGIQNGVPELYILSKEKVLEMDPNISDNIKGALYAKTGGIIGPWEFTIALAENAVENGVNIFLSNEVVDIEKKDFGYRIITNKDTYDTKYVVNCAGLYADKINNMVSNNKMEIIPRRGQYYLLDKTVGNLVKYVIFQCPSKLGKGVLVTPTVHGNLLIGPDAEDLIDKTALNTTSEGLNFIVEVARRSVKTLPLNMAITNFAGLRARTERDDFIIEEAVDAKGFINVAGIESPGLSSAPAISLYVIDILKNIAKKIEKKENFNPYRRAIPKFIELSEDEKNELVKKDKRFGKIICRCESITEGEIVSAIHRNVGARTVDAVKRRVRAGMGRCQGGFCSPRVIEILARELGVEMTEIEKDHEGSYILTGPTKSEVQ
Km (purified protein [2]): 1.97 +/- 0.23 x 10^-3 M
kcat (purified protein [2]): 0.242 s⁻¹
kcat/Km (purified protein [2]): 123 M⁻¹ s⁻¹
